Legend:
TSHR = assay: Binding of 125I-CGH and 125I-TSH to BHK cells expressing the TSHR; design: species or system murine or human; details: increasing amounts of unlabeled protein
Procedure: BHK cells expressing murine or human TSHRs were cultured in Dulbecco's Modified Eagle's Medium [DMEM (high glucose)] containing 5% fetal bovine serum, 1% Glutamax, 1% sodium pyruvate, 250 nM methotrexate, and Geneticin ( 1/100). […] Plates of cells were placed on ice and washed twice with 1.0-2.0 ml of ice-cold PBS. […] Specific binding was determined in the presence (nonspecific binding) and absence (total binding) of unlabeled rhCGH (25.0 μg/ml) or TSH (10 μg/ml). Binding reactions were terminated by removing the binding medium and the cell monolayers were washed three times with 1.0-2.0 ml of ice-cold PBS containing 1.0 mg/ml BSA and twice with 1.0-2.0 ml of ice cold albumin-free PBS. Cells were solubilized in 1.0 ml of 1.0N NaOH for 10 min at room temperature and cell-associated radioactivity was determined in a gamma counter. The measured radioactivity was normalized to cell number that was determined on plates of cells cultured in parallel. Binding data were analyzed by non-linear regression using Prizm 3.0 (GraphPad Software, San Diego, Calif.).

[1] = tested on: differentiated 3T3 L1 adipocytes; assay: CRE-luciferase reporter assay in differentiated 3T3 L1 adipocytes; format: cell-based, murine
Source text: (§1) Differentiated murine 3T3 L1 adipocytes and primary human adipocytes were used to study signal transduction of CGH. 3T3 L1 fibroblasts were differentiated into adipocytes and the cells were transduced with recombinant adenovirus containing a reporter construct, a firefly luciferase gene under the control of cAMP response element (CRE) enhancer sequences. This assay system detects cAMP-mediated gene induction downstream of activation of Gs-coupled G-protein coupled receptors (GPCR's). […] In a separate experiment, undifferentiated 3T3 L1 fibroblasts were transduced with the recombinant adenovirus. […] In another experiment, human primary adipocytes were also transduced with the recombinant adenovirus containing a reporter construct. Treatment of the human adipocytes with isoproterenol produced a 17-fold induction of luciferase expression.
(§2) Cells were cultured at 37° C. in an 8% CO2 humidified incubator. Cells were seeded to collagen-coated 96-well plates (Becton Dickinson, cat. #356407) at a density of 5,000 cells per well. […] Luciferase activity was measured on a microplate luminometer (PerkinElmer Life Sciences, Inc., model LB 96V2R) following automated injection of 40 μl of luciferase assay substrate into each well. […]

[2] = tested on: undifferentiated 3T3 L1 fibroblasts; assay: CRE-luciferase reporter assay in undifferentiated 3T3 L1 fibroblasts; format: cell-based, murine
Source text: as §1, §2

B1: CGH: heterodimeric protein hormone comprised of alpha subunit GPHA2 and beta subunit GPHB5, recombinantly produced in CHO cells (protein)
chain 1: QEAVIPGCHLHPFNVTVRSDRQGTCQGSHVAQACVGHCESSAFPSRYSVLVASGYRHNITSVSQCCTISGLKKVKVQLQCVGSRREELEIFTARACQCDMCRLSRY
chain 2: ASSGNLRTFVGCAVREFTFLAKKPGCRGLRITTDACWGRCETWEKPILEPPYIEAHHRVCTYNETKQVTVKLPNCAPGVDPFYTYPVAIRCDCGACSTATTECETI
- reduction of the amount of 125I-CGH bound by unlabeled competitor (TSHR): reduced the amount of ^125I-CGH bound
- induction of luciferase expression [1]: 27 fold
- reporter gene induction [2]: did not result in an increase in reporter gene induction

From patent US20070014736A1, “Methods of delivering corticotroph-derived glycoprotein hormone” (priority 2005, published 2007)
